Assay [1] addresses T1, recombinant human PD-1 (human, UniProt Q15116 25-167, limits assumed).
T1 construct: also called human PD-1 protein; soluble PD-1
The experiment in a line: SPR (Biacore), antibody captured via anti-human IgG.
Procedure: This technology allows the label-free determination of the microscopic rate constants for binding (kₐ) and dissociation (kd) of a ligand to a receptor. […] The kinetic traces were evaluated with the Biacore™ T2000. The full set of these traces with increasing concentrations is taken together and is called a run. Two zero concentration samples (blank runs) were included in each analyte concentration series to allow double-referencing during data evaluation. The kinetic rate constants for association (kₐ) and dissociation (kd) as well as the dissociation equilibrium constant (KD) were calculated.

Assay [2] concerns the target T1, recombinant human PD-1. The experiment in a line: competition ELISA on coated human PD-1, antibody titrated against 50 ng/ml Nivolumab as competitor; EC50 estimated at half-maximal absorbance.
Procedure: The assay was conducted essentially as follows. […] HRP-conjugated anti-human antibody was added and incubated.
Assay [3] concerns the target T2, mouse PD-1 (mouse, UniProt Q02242 25-167, limits assumed).
T2 sequence (looked up): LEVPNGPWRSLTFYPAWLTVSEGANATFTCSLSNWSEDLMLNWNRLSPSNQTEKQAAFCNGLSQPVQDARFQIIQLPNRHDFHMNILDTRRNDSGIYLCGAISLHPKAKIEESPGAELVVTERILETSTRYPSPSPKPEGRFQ
The experiment in a line: ELISA.

T1 sequence (Q15116 25-167 limits assumed): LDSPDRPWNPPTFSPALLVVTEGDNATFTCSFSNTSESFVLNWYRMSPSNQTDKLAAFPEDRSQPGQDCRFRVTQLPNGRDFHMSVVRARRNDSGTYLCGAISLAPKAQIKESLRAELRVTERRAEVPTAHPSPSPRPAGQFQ

B1: Abs-h-924 (antibody, V domains shown)
VH: QVQLVESGGGVVQPGRSLRLSCAASGFTFSSYGMHWVRQAPGKGLEWVAVISYDGSNKYYADSVKGRFTISRDNSKNTLYLQMNSLRAEDTAVYYCARYYYYYGMDVWGQGTTVTVSS
VL: EIVLTQSPATLSLSPGERATISCRGSQSLSSYLAWYQQRPGQAPRLLIYDVSNRATGIPARFSGSGSGTDFTLTISGLEPEDFAVYYCQQRTNWPRAFGQGTKVEIKR
notes: also called humanized anti-human-PD-1 recombinant antibody Abs-h-924
For B1, in assay [1], the off-rate (koff) was 3.9e-06 s⁻¹ and the kon was 1.22e+06 M⁻¹ s⁻¹. Besides, the half-maximal effective concentration (EC50) in assay [2] is 0.14 nM.

B2: Abs-h-925 (antibody, V domains shown)
VH: QVQLVDSGGGVVQPGRSLRLSCAASAFTFSSYAMHWVRQAPGKGLEWVAVISYDGSNKYYADSVKGRFTISRDNSKNTLYLQMNSLRAEDTAVYYCARYYYYYYMDVWGKGTTVTVSS
VL: EIVLTQSPATLSLSPGERATLSCRASQSVSSYLAWYQQKPGQAPRLLIYEASNRATGIPARFSGSGSGTDFTLTISSLEPEDFAVYYCQQRTNWPPAFGQGTKVEIKR
notes: also called humanized anti-human-PD-1 recombinant antibody Abs-h-925
With B2, in assay [1], the dissociation rate constant (koff) turned out to be 3.2e-06 s⁻¹ and the kon was determined as 1.19e+06 M⁻¹ s⁻¹. For the same molecule, in assay [2], the EC50 is 0.15 nM.

B3: Abs-r-924 (antibody, V domains shown)
VH: QESVKESGGGLVKPGDTLTLTCKVSGFSISSYGMHWVRQAPGKGLEWIGVISYDGSNKYYADSVKGRFTISRNTNQNTVTLKMTSLTADDTATYFCARYYYYYGMDVWGQGTLVTVSS
VL: EIVLTQTPSSVSAAVGSTVTINCRGSQSLSSYLAWYQQKPGQRPKLLIYDVSNRATGVPRRFKGSGSGTQFTLTISGVQADDAATYYCQQRTNWPRAFGGGTKVDVKG
notes: Rabbit recombinant antibody expressed in HEK293; also called rabbit anti-human-PD-1 recombinant antibody Abs-r-924
Consider B3, for which the binding result in assay [3] is on record as “no binding”.

B4: Abs-h-923 (antibody, V domains shown)
VH: QVQLVQSGAEVKKPGASVKVSCKASGYTFTSYAMHWVRQAPGQRLEWMGWSNAGNGNTKYSQEFQGRVTITRDTSASTAYMELSSLRSEDMAVYYCARYWYFDLWGRGTLVTVSS
VL: EIALTQSPATLSLSPGERATLSCRASQSGSSFVAWYQQKPGQAPRLLIYANNKRETGIPARFSGSGSGTDFTLTISSLEPEDFAVYYCGTYTDSPPTFGQGTKVEIKR
Regarding B4, in assay [1], the koff worked out at 7.9e-06 s⁻¹ and the kon is 1.15e+06 M⁻¹ s⁻¹. Moreover, in assay [2], the EC50 was 0.41 nM.

The record behind these values is patent US20200062847A1 (XIANGTAN TENGHUA BIOSCIENCE, published 2020).
